Patent US9404087B2, “Insulin producing cells derived from pluripotent stem cells” (Kadimastem Ltd., priority 2010, dated 2016)

B1: Activin A: recombinant human Activin A (Preprotech), 100 ng/ml (protein, UniProt P08476 311-426, looked up)
Inhibin beta A chain: GLECDGKVNICCKKQFFVSFKDIGWNDWIIAPSGYHANYCEGECPSHIAGTSGSSLSFHSTVINHYRMRGHSPFANLKSCCVPTKLRPMSMLYYDDGQNIIKKDIQNMIVEECGCS
modifications: Inhibin beta A chain
B2: Noggin: Noggin (Preprotech) added at 100 ng/ml in step 5 (protein, UniProt Q13253 28-232, looked up)
Noggin: QHYLHIRPAPSDNLPLVDLIEHPDPIFDPKEKDLNETLLRSLLGGHYDPGFMATSPPEDRPGGGGGAAGGAEDLAELDQLLRQRPSGAMPSEIKGLEFSEGLAQGKKQRLSKKLRRKLQMWLWSQTFCPVLYAWNDLGSRFWPRYVKVGSCFSKRSCSVPEGMVCKPSKSVHLTVLRWRCQRRGGQRCGWIPIQYPIISECKCSC

How the values were obtained:
Assay type in all cases: cell-based
human ES cells = assay: Indirect immunofluorescence of definitive endoderm markers after Activin A treatment
Protocol: On day one, three wells of human ES cell colonies (grown on Corning 6×well plate for 4 days) detached by collagenase were collected into a 15 ml tube, and colonies washed twice by low speed centrifugation in differentiation medium A (DMEM/F12, 2% KOSR, 2 mM glutmine, 1×NEAA, 100 μM βMEtOH, 1 mM NaPyruvate and penicillin and streptomycin (PS)).
After all the hES clusters had been collected and washed, the clusters were suspended in 1.5 ml/well of differentiation medium A1, (i.e. differentiation medium A including 100 ng/ml recombinant human Activin A (Preprotech) and 25 ng/ml recombinant Wnt 3 (R&D), 2% knock-out serum replacement and 2 mg/ml bovine serum albumin (BSA, cell culture tested SIGMA)). 450-500 colonies/well were seeded in Costar 6×well plates which had been coated with 0.1% porcine gelatin (Sigma) 1 day before. Alternatively, about 3000 colonies were seeded on 10 cm diameter plates. Plates were left in the incubator (37° C., 5% CO2) for 2 days without medium change.
On day 3, the medium was changed to differentiation medium A2 (DMEM/F12, 2% KOSR, 2 mM glut, 1×NEAA, 100 μM βMEtOH, 1 mM NaPyr and 2% Fetal Calf Serum (FCS)) containing 100 ng/ml Activin A and 2 mg/ml BSA. At this stage, clusters still floated and many single cells were visible. The plates were tilted so that clusters fell to the bottom edge of the well and the old medium was removed leaving clusters in 300 μl medium that is completed with 1.2 ml of medium A2. The collected culture medium that contained a few clusters was centrifuged at 900 rpm for 5 minutes. The pellet was re-suspended in 1.5 ml medium A2 and added to one of the wells. On day 4, most clusters adhered to the plate and the culture medium was changed similarly as on day 3, to differentiation medium A3 (DMEM/F12, 2 mM glutamine, 1×NEAA, 100 μM βMEtOH, 1 mM NaPyr but with 0.2% FCS) that contained 100 ng/ml Activin A and 2 mg/ml BSA. Cells were left in the medium A3 for 2 days.
Cells were fixed (4% paraformaldehyde in Ca^2+ and Mg^2+ free PBS for 20 minutes), washed ×3 with PBS and blocked with 10% horse serum in PBS. The reaction with the primary antibody (Ab) was performed in 10% horse serum with or without 1% BSA. Secondary antibodies (Either donkey anti mouse; donkey anti rabbit; donkey or rabbit anti-goat that are conjugated with fluorescent tags, Alexa 488 or Alexa 566 (Molecular Probes/Invitrogen) or with Cy3/donkey anti rabbit DyLight 488 (Jackson laboratories). Pictures were taken with a CCD camera and processed with an imaging program. Mouse monoclonal anti Sox17 Ab (R&D) 10 μg/ml was used with 0.1% Triton X100. Rabbit polyclonal anti FoxA2 (ab40874) (Abcam) was used at the dilution of 1/1000 with 0.1% Triton X100.

human insulin C-peptide = assay: Content of human insulin C-peptide by ELISA in cell fractions
Protocol: On day 20, the medium used in step III of Example 2 was modified to adjust the glucose concentration to 5.5 mM (referred to herein as DM7). For isolation of EpCAM^+ cells by magnetic cell sorting (MACS technology, Miltenyi Biotec), a 10 cm-diameter plate was washed with PBS^−/− (no Ca^++, no Mg^++). Cells were then dissociated by treatment with Accutase (Stempro, 2.5 ml/10 cm plate), for 10 minutes at 37° C., and pipetting up and down. The cells were collected in DM7 and an aliquot counted in a NucleoCounter (New Brunswick). Cells were centrifuged at 1,500 rpm (350×g) for 5 minutes and re-suspended in MACS buffer (PBS^−/− with 0.5% BSA, 2 mM EDTA), using 0.3 ml for 50 million cells. Magnetic beads conjugated to anti-EpCAM antibodies (Miltenyi Biotec—CD326 pluripotent stem cells microbeads) were added (0.1 ml beads for 50 million cells). After 30 minutes at 4° C., the cells were washed once in 50 ml of MACS buffer, centrifuged, and finally re-suspended in 0.5 ml MACS buffer (for a maximum of 10^8 cells). […]
Aliquots of the Presort culture and of EpCAM-MACS-separated fractions (from step 7), as well as of re-aggregated clusters (step 8) were analyzed. The number of cells was counted, using the Nucleocounter. After centrifugation at 350×g for 5 minutes, cell pellets were dissolved in M-PER (Mammalian protein extraction reagent, Pierce), typically using 0.1 ml M-PER for 2 million cells, and content of human insulin C-peptide was measured with an ELISA kit (Mercodia, Upsalh, Sweden, ultrasensitive c-peptide kit (minimal detection 5 pM) or Mercodia c-peptide ELISA (minimal detection 90 pM). Samples in M-PER were diluted 3 fold, or more in the kit buffer, and 20 μl of the ⅓ dilution were assayed. Results were expressed per mg total protein (as measured by Bradford assay) and per million cells (counted in a NucleoCounter). […] Human insulin mRNA was quantitated by RT-qPCR (Taq-Man, Applied Biosystems, Step One) using the TATA binding protein (TBP) gene as reference. […]

Human insulin mRNA = Human insulin mRNA by RT-qPCR with TBP as reference
Protocol: Aliquots of the Presort culture and of EpCAM-MACS-separated fractions (from step 7), as well as of re-aggregated clusters (step 8) were analyzed. The number of cells was counted, using the Nucleocounter. After centrifugation at 350×g for 5 minutes, cell pellets were dissolved in M-PER (Mammalian protein extraction reagent, Pierce), typically using 0.1 ml M-PER for 2 million cells, and content of human insulin C-peptide was measured with an ELISA kit (Mercodia, Upsalh, Sweden, ultrasensitive c-peptide kit (minimal detection 5 pM) or Mercodia c-peptide ELISA (minimal detection 90 pM). Samples in M-PER were diluted 3 fold, or more in the kit buffer, and 20 μl of the ⅓ dilution were assayed. Results were expressed per mg total protein (as measured by Bradford assay) and per million cells (counted in a NucleoCounter). Other cell pellets were suspended in 0.7 ml buffer RLT (RNAeasy, Qiagen) per million cells, for RNA extraction. Human insulin mRNA was quantitated by RT-qPCR (Taq-Man, Applied Biosystems, Step One) using the TATA binding protein (TBP) gene as reference. In the same way, proteins and RNA were extracted from entire plates after scraping the cells with a rubber policeman.
Differentiation of hES cells towards a pancreatic lineage: The hES cell cultures were differentiated as detailed in Example 5 and FIG. 15, steps 1-8, and RNA extracted at different steps was subjected to RT-qPCR.
Human ES cells were differentiated according to the scheme illustrated in FIG. 22. Two modifications were made in the procedure detailed in Example 5. Thus, in step 2 and 3, the fetal calf serum was replaced by serum replacement (KOSR, Invitrogen), at the same concentrations (i.e. 2% in step 2, 0.2% in step 3). In addition, in step 5, Noggin (Preprotech) was added at 100 ng/ml. The EpCAM-MACS fractionation was performed as in Example 5.

[1] = five days Activin A conditioning, positive nuclei relative to DAPI nuclei (FIG. 1)

Row | Molecule | cells anti Oct4 positive (human ES cells; end of 5 days of Activin A treatment) | cells expressing Sox17 and/or FoxA2 (human ES cells; end of 5 days of Activin A treatment, 100 ng/ml) | yield of cells expressing FoxA2 (human ES cells; [1]) | yield of cells expressing Sox17 (human ES cells; [1]) | Insulin C-peptide (human insulin C-peptide; Table 4 Expt 1, D 19 (EpCAM+)) | Insulin C-peptide (human insulin C-peptide; Table 4 Expt 1, D 19 (Presort)) | Insulin C-peptide (human insulin C-peptide; Table 4 Expt 1, D 23 (EpCAM+)) | Ratio Insulin mRNA over TBP mRNA (Human insulin mRNA; Table 5 Expt 1, D 19 (EpCAM+)) | Ratio Insulin mRNA over TBP mRNA (Human insulin mRNA; Table 5 Expt 1, D 19 (Presort)) | Ratio Insulin mRNA over TBP mRNA (Human insulin mRNA; Table 5 Expt 1, D 23 (EpCAM+))
1 | B1 | 5% | about 75% | 89% | 98% | – | – | – | – | – | –
2 | B2 | – | – | – | – | 8.15 ng/mg protein | 2.9 ng/mg protein | 17.5 ng/mg protein | 0.7 | 0.6 | 0.7
